Source: PMC8958351, “Ubiquitylation of cyclin C by HACE1 regulates cisplatin‐associated sensitivity in gastric cancer” (Clinical and Translational Medicine, 2022)

Legend:
Assay in all cases: pull-down; GST pull-down; purified GST-HACE1 proteins incubated with purified cyclin C-MBP-His for 6 h at 4°C in 50 mM Tris-Cl, 200 mM NaCl, 1 mM EDTA, 1% NP-40, 1 mM DTT, 10 mM MgCl2, 10 μg/ml BSA, pH 8.0; GST pulled down, cyclin C immunoblotted
Settings in all cases: both partners purified
[1] = biological target: T1, GST‐HACE1 truncation, amino acids 1–546 (human, UniProt Q8IYU2 1-546)
T1 sequence (looked up): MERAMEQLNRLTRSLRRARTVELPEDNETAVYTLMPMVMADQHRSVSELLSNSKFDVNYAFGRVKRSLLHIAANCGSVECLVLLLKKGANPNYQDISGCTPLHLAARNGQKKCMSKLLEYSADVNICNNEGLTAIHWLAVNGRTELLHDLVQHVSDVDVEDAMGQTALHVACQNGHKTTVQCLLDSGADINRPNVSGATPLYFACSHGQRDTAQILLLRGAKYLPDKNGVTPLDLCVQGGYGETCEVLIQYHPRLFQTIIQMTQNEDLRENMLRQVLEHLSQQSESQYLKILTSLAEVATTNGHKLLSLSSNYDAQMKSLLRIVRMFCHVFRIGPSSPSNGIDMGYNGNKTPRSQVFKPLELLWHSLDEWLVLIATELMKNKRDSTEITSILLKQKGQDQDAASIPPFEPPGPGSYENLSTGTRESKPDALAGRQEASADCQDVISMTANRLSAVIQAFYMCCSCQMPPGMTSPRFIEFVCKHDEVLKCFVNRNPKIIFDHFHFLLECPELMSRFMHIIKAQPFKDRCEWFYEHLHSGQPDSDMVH

[2] = biological target: T2, GST‐HACE1 truncation, amino acids 258–909 (human, UniProt Q8IYU2 258-909)
T2 sequence (looked up): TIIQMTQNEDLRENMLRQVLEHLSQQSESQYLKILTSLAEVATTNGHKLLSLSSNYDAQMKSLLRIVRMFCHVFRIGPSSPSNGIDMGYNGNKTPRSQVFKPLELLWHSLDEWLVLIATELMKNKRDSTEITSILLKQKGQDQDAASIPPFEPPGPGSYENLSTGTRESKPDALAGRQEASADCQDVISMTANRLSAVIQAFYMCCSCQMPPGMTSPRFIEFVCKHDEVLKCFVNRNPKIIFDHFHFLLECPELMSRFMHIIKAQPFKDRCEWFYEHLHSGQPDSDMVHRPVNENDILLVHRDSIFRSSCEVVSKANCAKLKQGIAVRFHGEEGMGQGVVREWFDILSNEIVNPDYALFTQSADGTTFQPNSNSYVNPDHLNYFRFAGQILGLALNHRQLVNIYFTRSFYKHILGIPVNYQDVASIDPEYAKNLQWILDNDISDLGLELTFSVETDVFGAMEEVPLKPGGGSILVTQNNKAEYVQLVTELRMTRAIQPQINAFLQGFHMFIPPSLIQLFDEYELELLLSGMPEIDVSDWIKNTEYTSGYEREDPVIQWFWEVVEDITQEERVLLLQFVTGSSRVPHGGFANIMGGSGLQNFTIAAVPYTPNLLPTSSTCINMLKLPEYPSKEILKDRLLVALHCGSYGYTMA

GST‐HACE1 = biological target: T3, GST‐HACE1 (human, UniProt Q8IYU2 1-909)
T3 construct: HACE1, human; the cDNA encoding HACE1 cloned into pGEX4T-1; also called recombinant glutathione (GST)‐tagged HACE1; GST‐fused HACE1
T3 sequence (looked up): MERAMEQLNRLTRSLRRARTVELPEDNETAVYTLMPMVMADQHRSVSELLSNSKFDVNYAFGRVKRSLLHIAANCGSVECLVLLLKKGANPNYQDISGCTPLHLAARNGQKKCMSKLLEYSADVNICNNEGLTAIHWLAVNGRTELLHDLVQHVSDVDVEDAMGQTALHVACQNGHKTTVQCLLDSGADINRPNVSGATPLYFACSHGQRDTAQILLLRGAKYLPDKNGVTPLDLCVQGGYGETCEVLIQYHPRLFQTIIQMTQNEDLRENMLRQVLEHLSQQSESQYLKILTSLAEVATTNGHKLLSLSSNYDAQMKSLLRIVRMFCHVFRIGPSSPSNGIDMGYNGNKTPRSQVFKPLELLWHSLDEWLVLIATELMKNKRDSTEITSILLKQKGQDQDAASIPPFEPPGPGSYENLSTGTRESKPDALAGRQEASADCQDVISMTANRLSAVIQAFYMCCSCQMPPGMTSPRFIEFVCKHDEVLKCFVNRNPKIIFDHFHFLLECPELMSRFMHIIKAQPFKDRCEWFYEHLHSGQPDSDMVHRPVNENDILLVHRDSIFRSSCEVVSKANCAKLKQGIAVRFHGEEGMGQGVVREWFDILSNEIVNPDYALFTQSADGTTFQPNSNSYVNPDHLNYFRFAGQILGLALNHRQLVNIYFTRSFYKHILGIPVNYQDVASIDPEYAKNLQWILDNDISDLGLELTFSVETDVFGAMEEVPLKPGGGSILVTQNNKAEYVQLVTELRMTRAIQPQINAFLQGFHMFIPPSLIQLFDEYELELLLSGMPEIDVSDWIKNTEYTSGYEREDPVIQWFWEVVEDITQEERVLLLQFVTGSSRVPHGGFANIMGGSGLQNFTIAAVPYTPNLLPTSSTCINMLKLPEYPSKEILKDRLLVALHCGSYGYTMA

[3] = biological target: T4, GST‐HACE1 truncation, amino acids 547–909 (human, UniProt Q8IYU2 547-909)
T4 sequence (looked up): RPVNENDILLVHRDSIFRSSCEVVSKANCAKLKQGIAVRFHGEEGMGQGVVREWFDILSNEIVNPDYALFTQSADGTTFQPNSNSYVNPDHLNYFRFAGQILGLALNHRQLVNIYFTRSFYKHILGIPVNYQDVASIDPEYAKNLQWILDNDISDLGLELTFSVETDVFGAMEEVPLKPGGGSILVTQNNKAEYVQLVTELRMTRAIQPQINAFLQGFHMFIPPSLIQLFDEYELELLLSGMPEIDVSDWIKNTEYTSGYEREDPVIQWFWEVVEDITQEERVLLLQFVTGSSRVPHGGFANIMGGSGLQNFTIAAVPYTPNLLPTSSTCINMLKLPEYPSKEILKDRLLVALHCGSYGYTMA

- binding result [1]: binds
- binding result [2]: binds
- binding result (GST‐HACE1): binds
- binding result [3]: binds
B1: MBP‐His‐tagged cyclin C (natural protein, human)
chain: MAGNFWQSSHYLQWILDKQDLLKERQKDLKFLSEEEYWKLQIFFTNVIQALGEHLKLRQQVIATATVYFKRFYARYSLKSIDPVLMAPTCVFLASKVEEFGVVSNTRLIAAATSVLKTRFSYAFPKEFPYRMNHILECEFYLLELMDCCLIVYHPYRPLLQYVQDMGQEDMLLPLAWRIVNDTYRTDLCLLYPPFMIALACLHVACVVQQKDARQWFAELSVDMEKILEIIRVILKLYEQWKNFDERKEMATILSKMPKPKPPPNSEGEQGPNGSQNSSYSQS
notes: Cyclin C, human; the cDNA of CCNC cloned into pSJ8 (pET21a derivative, MBP-His fusion vector); also called cyclin C‐MBP‐His; source: Escherichia coli BL21, purified (Ni‐NTA agarose beads)
